Measurements reported in patent publication US20230133118A1, “COMPOSITIONS AND METHODS FOR TREATING CANCER” (Adagene AG, priority 2020, published 2023).

Tests used:
CD137 [1] = target: T1, CD137 (Homo sapiens, UniProt Q07011); assay: Receptor occupancy calculated from drug plasma concentration and KD; conditions: 0.1 mg/kg, MTD for Urelumab
CD137 [2] = target: T1, CD137; assay: Cellular NFκB reporter gene assay (CD137-expressing NFκB-Luc Jurkat reporter cells); type: cell-based; parameters: expressed in transfected cells; host or cells: NFκB-Luc Jurkat reporter cells (with or without co-cultured CHO-K1 cells expressing human FcγRIIb)
Method: The CD137-expressing NFκB-Luc Jurkat reporter cells were stimulated with the anti-CD137 antibodies in the absence (left panel) or presence (right panel) of co-cultured CHO-K1 cell expressing human FcγRIIb. Luciferase activity was measured by bioluminescence assay.

CD137 [3] = target: T1, CD137; assay: Binding affinity (KD) by surface plasmon resonance (SPR); conditions: read-out: binding affinity (KD)
4T1 breast cancer cells = assay: 4T1 breast cancer model, ADG106 with docetaxel; type: in vivo, BALB/c mice; conditions: 5 mg/kg; ADG106 i.p. twice a week 4 doses, Docetaxel i.v. once a week 3 doses
Text: Tumor growth was monitored twice weekly and is reported as mean tumor volume ±SEM over time.

Lewis lung cancer cells = assay: Lewis lung cancer model, ADG106 with cisplatin; type: in vivo, C57BL/6 mice; conditions: 5 mg/kg i.p.
Text: C57BL/6 mice (n=8 per group, female, 6-8 weeks old) were transplanted subcutaneously with 5×10^5 Lewis lung cancer cells. […] Tumor growth was monitored twice weekly and reported as mean tumor volume ±SEM over time.

LLC-CD20 cells = assay: LLC-CD20 lung cancer model, ADG106 with rituximab; type: in vivo, C57BL/6 mice; conditions: 10 mg/kg i.p. twice a week for 3 weeks
Text: C57BL/6 mice (n=6 per group, female, 6-8 weeks old) were transplanted subcutaneously with 5×10^5 LLC-CD20 cells, a Lewis lung cancer cell line expressing CD20. […] Tumor growth was monitored twice weekly and reported as mean tumor volume ±SEM over time.

T1 sequence (Q07011 24-255): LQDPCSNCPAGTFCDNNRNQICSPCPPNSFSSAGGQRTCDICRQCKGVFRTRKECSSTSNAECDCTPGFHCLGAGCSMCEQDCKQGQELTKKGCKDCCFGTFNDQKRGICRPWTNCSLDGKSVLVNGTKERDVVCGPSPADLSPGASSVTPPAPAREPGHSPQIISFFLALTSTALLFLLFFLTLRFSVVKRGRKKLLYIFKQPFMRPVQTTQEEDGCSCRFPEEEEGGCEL

Molecule: Urelumab: clinical reference anti-CD137 mAb [reference compound]
- Calculated Receptor Occupancy (CD137 [1]): 64%
- human CD137 agonism without crosslinking (CD137 [2]; no crosslinking): function as a human CD137 agonist without crosslinking
- human CD137 agonism following crosslinking (CD137 [2]; with crosslinking): function as agonists
- Kd (CD137 [3]): 9.6 nM

Molecule: CC(=O)O[C@@]12CO[C@@H]1C[C@H](O)[C@@]1(C)C(=O)[C@H](O)C3=C(C)[C@@H](OC(=O)[C@H](O)[C@@H](NC(=O)OC(C)(C)C)c4ccccc4)C[C@@](O)([C@@H](OC(=O)c4ccccc4)[C@H]21)C3(C)C [Docetaxel, docetaxel, reference compound]
- anti-tumor activity, mono-therapy (4T1 breast cancer cells): marginal anti-tumor activity

Molecule: N.N.[Cl][Pt][Cl] [cisplatin, reference compound]
- anti-tumor activity, monotherapy (Lewis lung cancer cells): showed anti-tumor activity

Molecule: Rituximab: anti-CD20 antibody [reference compound]
- tumor growth, single agent (LLC-CD20 cells): only weakly inhibited tumor growth
